Assay [1] has as its target T1, recombinant human CEACAM5 (human, UniProt P06731 35-685, limits assumed).
T1 construct: Immobilised by amine coupling on a CM5 chip
T1 sequence (looked up): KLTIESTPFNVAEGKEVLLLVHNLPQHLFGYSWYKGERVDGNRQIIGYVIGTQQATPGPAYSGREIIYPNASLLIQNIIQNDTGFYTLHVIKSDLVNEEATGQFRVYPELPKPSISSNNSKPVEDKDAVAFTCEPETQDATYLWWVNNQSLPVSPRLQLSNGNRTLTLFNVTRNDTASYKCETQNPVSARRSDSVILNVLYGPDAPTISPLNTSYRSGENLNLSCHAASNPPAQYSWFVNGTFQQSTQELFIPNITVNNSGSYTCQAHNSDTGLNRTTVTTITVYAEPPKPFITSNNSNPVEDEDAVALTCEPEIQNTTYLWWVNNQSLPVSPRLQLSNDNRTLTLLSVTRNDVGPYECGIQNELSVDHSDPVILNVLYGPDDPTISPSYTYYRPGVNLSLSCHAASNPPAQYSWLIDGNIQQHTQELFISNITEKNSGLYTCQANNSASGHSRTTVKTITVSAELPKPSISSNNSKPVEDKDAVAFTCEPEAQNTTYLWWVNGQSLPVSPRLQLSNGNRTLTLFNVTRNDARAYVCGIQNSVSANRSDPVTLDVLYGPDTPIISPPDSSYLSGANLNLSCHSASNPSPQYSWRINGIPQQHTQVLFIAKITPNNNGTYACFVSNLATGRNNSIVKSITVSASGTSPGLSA
Put plainly: SPR Biacore 8K+, CEACAM5 amine-coupled on CM5, ISVD analyte, 1:1 fit.

The target of assay [2] is T2, human serum albumin (human, UniProt P02768 25-609).
T2 construct: Immobilised by amine coupling on a C1 chip; also called HSA
The assay is described as follows: SPR Biacore 8K+, HSA amine-coupled on C1 chip, ISVD analyte, 1:1 fit.

Assay [3] has as its target T2, human serum albumin. Put plainly: SPR on HSA (Example 2; method not restated, as Example 1).

T2 sequence (P02768 25-609 limits assumed): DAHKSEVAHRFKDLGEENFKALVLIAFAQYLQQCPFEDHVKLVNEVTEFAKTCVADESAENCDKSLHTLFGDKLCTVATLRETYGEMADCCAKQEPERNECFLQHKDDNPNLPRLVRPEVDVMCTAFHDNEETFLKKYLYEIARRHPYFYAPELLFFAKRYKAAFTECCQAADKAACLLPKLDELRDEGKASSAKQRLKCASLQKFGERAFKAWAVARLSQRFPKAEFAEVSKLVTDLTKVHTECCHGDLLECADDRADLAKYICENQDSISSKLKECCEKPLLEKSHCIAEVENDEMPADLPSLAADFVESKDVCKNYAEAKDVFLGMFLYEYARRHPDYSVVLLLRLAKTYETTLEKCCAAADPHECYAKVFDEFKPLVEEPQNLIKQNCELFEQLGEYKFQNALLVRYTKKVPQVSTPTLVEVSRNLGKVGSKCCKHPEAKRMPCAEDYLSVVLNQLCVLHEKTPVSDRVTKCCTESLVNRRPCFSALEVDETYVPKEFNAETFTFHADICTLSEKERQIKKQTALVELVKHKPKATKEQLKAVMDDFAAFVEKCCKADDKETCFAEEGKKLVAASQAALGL

B1: T028501830 (VHH)
VHH: EVQLVESGGGVVQPGGSLRLSCAASGHTFSEYALGWFRQAPGKEREFVAAINWGGGWTYYADSVKGRFTISRDNARNTLYLQMNSLRPEDTALYYCAASSDYAGGNPTGYPYWGQGTLVTVSS
notes: K75R vs precursor T028501817; also called A0315024B02(M43K, Q64K, K75R, K83R)
As to B1, in assay [1], the Kd amounted to 6.01 nM, the koff worked out at 0.00207 s⁻¹ and the kon worked out at 344000 M⁻¹ s⁻¹.

B2: T028501831 (VHH)
VHH: EVQLVESGGGVVQPGGSLRLSCAASGHTFSEYALGWFRQAPGKEREFVAAINWGGGWTYYADSVKGRFTISRDNAHNTLYLQMNSLRPEDTALYYCAASSDYAGGNPTGYPYWGQGTLVTVSS
notes: K75H vs precursor T028501817; also called A0315024B02(M43K, Q64K, K75H, K83R)
Turning to B2, in assay [1], the Kd is 7.8 nM, the koff turned out to be 0.00209 s⁻¹ and the kon was 268000 M⁻¹ s⁻¹.

B3: T028501832 (VHH)
VHH: EVQLVESGGGVVQPGGSLRLSCAASGHTFSEYALGWFRQAPGKEREFVAAINWGGGWTYYADSVKGRFTISRDNAANTLYLQMNSLRPEDTALYYCAASSDYAGGNPTGYPYWGQGTLVTVSS
notes: K75A vs precursor T028501817; also called A0315024B02(M43K, Q64K,K75A, K83R)
B3: in assay [1], the Kd was determined as 6.34 nM, the koff was determined as 0.00204 s⁻¹ and the kon came to 322000 M⁻¹ s⁻¹.

B4: T028501806 (VHH)
VHH: EVQLVESGGGVVQPGGSLRLSCAASGFTFRSFGMSWVRQAPGEGPEWVSSISGSGSDTLYADSVKGRFTISRDNSKNTLYLQMNSLRPEDTALYYCTIGGSLSRSSQGTLVTVSS
notes: K43E vs precursor T028501805; also called HSA006A06(K43E, K83R)
Take B4: in assay [2], the Kd worked out at 1.26 nM, the koff turned out to be 0.00108 s⁻¹ and the kon was found to be 856000 M⁻¹ s⁻¹.

B5: T028501833 (VHH)
VHH: EVQLVESGGGVVQPGGSLRLSCAASGFTFRSFGMSWVRQAPGRGPEWVSSISGSGSDTLYADSVKGRFTISRDNSKNTLYLQMNSLRPEDTALYYCTIGGSLSRSSQGTLVTVSS
notes: K43R vs precursor T028501805; also called HSA006A06(K43R, K83R)
Consider B5, for which, in assay [2], the Kd stood at 1.29 nM, the koff is 0.000906 s⁻¹ and the kon came to 703000 M⁻¹ s⁻¹.

B6: T028501834 (VHH)
VHH: EVQLVESGGGVVQPGGSLRLSCAASGFTFRSFGMSWVRQAPGKGPEWVSSISGSGSDTLYADSVRGRFTISRDNSKNTLYLQMNSLRPEDTALYYCTIGGSLSRSSQGTLVTVSS
notes: K64R vs precursor T028501805; also called HSA006A06(K64R, K83R)
As to B6, in assay [2], the Kd was 1.11 nM, the koff stood at 0.00112 s⁻¹ and the kon was 1.01e+06 M⁻¹ s⁻¹.

B7: T028501814 (VHH)
VHH: EVQLVESGGGVVQPGGSLRLSCAASGFTFRSFGMSWVRQAPGKGPEWVSSISGSGSDTLYADSVKGRFTISRDNSQNTLYLQMNSLRPEDTALYYCTIGGSLSRSSQGTLVTVSS
notes: K75Q vs precursor T028501805; also called HSA006A06(K75Q, K83R)
As to B7, in assay [2], the Kd is 1.4 nM, the koff amounted to 0.00114 s⁻¹ and the kon is 814000 M⁻¹ s⁻¹.

B8: T028501836 (VHH)
VHH: EVQLVESGGGVVQPGGSLRLSCAASGFTFRSFGMSWVRQAPGKGPEWVSSISGSGSDTLYADSVKGRFTISRDNSHNTLYLQMNSLRPEDTALYYCTIGGSLSRSSQGTLVTVSS
In assay [2], B8 came in with a Kd of 1.35 nM, a koff of 0.00114 s⁻¹ and a kon of 839000 M⁻¹ s⁻¹.

B9: T028501815 (VHH)
VHH: EVQLVESGGGVVQPGGSLRLSCAASGFTFRSFGMSWVRQAPGKGPEWVSSISGSGSDTLYADSVKGRFTISRDNSRNTLYLQMNSLRPEDTALYYCTIGGSLSRSSQGTLVTVSS
notes: K75R vs precursor T028501805; also called HSA006A06(K75R, K83R)
In assay [2], B9 registered a Kd of 1.48 nM, a koff of 0.00127 s⁻¹ and a kon of 860000 M⁻¹ s⁻¹.

B10: T028501835 (VHH)
VHH: EVQLVESGGGVVQPGGSLRLSCAASGFTFRSFGMSWVRQAPGKGPEWVSSISGSGSDTLYADSVAGRFTISRDNSKNTLYLQMNSLRPEDTALYYCTIGGSLSRSSQGTLVTVSS
notes: K64A vs precursor T028501805; also called HSA006A06(K64A, K83R)
In assay [2], B10 displayed a Kd of 2.06 nM, a koff of 0.00108 s⁻¹ and a kon of 524000 M⁻¹ s⁻¹.

B11: T028501810 (VHH)
VHH: EVQLVESGGGVVQPGGSLRLSCAASGFTFRSFGMSWVRQAPGKGPEWVSSISGSGSDTLYADSVEGRFTISRDNSKNTLYLQMNSLRPEDTALYYCTIGGSLSRSSQGTLVTVSS
notes: K64E vs precursor T028501805; also called HSA006A06(K64E,K83R)
With B11, in assay [2], the Kd worked out at 1.93 nM, the koff came out at 0.00124 s⁻¹ and the on-rate (kon) is 644000 M⁻¹ s⁻¹.

B12: T028501816 (VHH)
VHH: EVQLVESGGGVVQPGGSLRLSCAASGFTFRSFGMSWVRQAPGKGPEWVSSISGSGSDTLYADSVKGRFTISRDNSANTLYLQMNSLRPEDTALYYCTIGGSLSRSSQGTLVTVSS
notes: K75A vs precursor T028501805; also called HSA006A06(K75A, K83R)
Turning to B12, in assay [2], binding was characterised by a dissociation constant (Kd) of 1.31 nM, the koff was determined as 0.00105 s⁻¹ and the kon is 799000 M⁻¹ s⁻¹.

B13: T028501807 (VHH)
VHH: EVQLVESGGGVVQPGGSLRLSCAASGFTFRSFGMSWVRQAPGQGPEWVSSISGSGSDTLYADSVKGRFTISRDNSKNTLYLQMNSLRPEDTALYYCTIGGSLSRSSQGTLVTVSS
notes: K43Q vs precursor T028501805; also called HSA006A06(K43Q, K83R)
Turning to B13, in assay [2], binding was put at a Kd of 1.76 nM, the koff was 0.00119 s⁻¹ and the kon stood at 677000 M⁻¹ s⁻¹.

B14: T028501808 (VHH)
VHH: EVQLVESGGGVVQPGGSLRLSCAASGFTFRSFGMSWVRQAPGHGPEWVSSISGSGSDTLYADSVKGRFTISRDNSKNTLYLQMNSLRPEDTALYYCTIGGSLSRSSQGTLVTVSS
notes: K43H vs precursor T028501805; also called HSA006A06(K43H, K83R)
Consider B14, for which, in assay [2], binding was characterised by a dissociation constant (Kd) of 1.4 nM, the koff amounted to 0.00102 s⁻¹ and the kon amounted to 728000 M⁻¹ s⁻¹.

B15: T039400039 (VHH)
VHH: EVQLVESGGGVVQPGGSLRLSCAASGFTFRSFGMSWVRQAPGRGPEWVSSISGSGSDTLYADSVRGRFTISRDNSKNTLYLQMNSLRPEDTALYYCTIGGSLSRSSQGTLVTVSS
notes: Single lysine at 75; also called HIS6-ENLYFQS-5GS-HSA006A06(K43R, K64R, K83R)
Take B15: in assay [3], the Kd was determined as 7.51 nM, the koff was 0.00226 s⁻¹ and the kon was determined as 301000 M⁻¹ s⁻¹.

B16: T028501813 (VHH)
VHH: EVQLVESGGGVVQPGGSLRLSCAASGFTFRSFGMSWVRQAPGKGPEWVSSISGSGSDTLYADSVKGRFTISRDNSENTLYLQMNSLRPEDTALYYCTIGGSLSRSSQGTLVTVSS
notes: K75E vs precursor T028501805; also called HSA006A06(K75E, K83R)
Turning to B16, in assay [2], the equilibrium dissociation constant (Kd) came out at 1.98 nM, the koff stood at 0.00102 s⁻¹ and the kon came out at 514000 M⁻¹ s⁻¹.

B17: T028501811 (VHH)
VHH: EVQLVESGGGVVQPGGSLRLSCAASGFTFRSFGMSWVRQAPGKGPEWVSSISGSGSDTLYADSVQGRFTISRDNSKNTLYLQMNSLRPEDTALYYCTIGGSLSRSSQGTLVTVSS
notes: K64Q vs precursor T028501805; also called HSA006A06(K64Q, K83R)
In the case of B17, in assay [2], the Kd is 1.76 nM, the koff is 0.00103 s⁻¹ and the kon was 587000 M⁻¹ s⁻¹.

B18: T028501809 (VHH)
VHH: EVQLVESGGGVVQPGGSLRLSCAASGFTFRSFGMSWVRQAPGAGPEWVSSISGSGSDTLYADSVKGRFTISRDNSKNTLYLQMNSLRPEDTALYYCTIGGSLSRSSQGTLVTVSS
notes: K43A vs precursor T028501805; also called HSA006A06(K43A, K83R)
In the case of B18, in assay [2], binding was characterised by a dissociation constant (Kd) of 1.13 nM, the koff came to 0.000872 s⁻¹ and the kon was 769000 M⁻¹ s⁻¹.

B19: T028501812 (VHH)
VHH: EVQLVESGGGVVQPGGSLRLSCAASGFTFRSFGMSWVRQAPGKGPEWVSSISGSGSDTLYADSVHGRFTISRDNSKNTLYLQMNSLRPEDTALYYCTIGGSLSRSSQGTLVTVSS
notes: K64H vs precursor T028501805; also called HSA006A06(K64H, K83R)
With B19, in assay [2], binding was characterised by a dissociation constant (Kd) of 1.74 nM, the koff was found to be 0.00102 s⁻¹ and the on-rate constant (kon) came out at 590000 M⁻¹ s⁻¹.

The values are drawn from patent US20250236673A1 (Ablynx, published 2025).
